{
  "source": "patent US20230025525A1",
  "about": "(HELMHOLTZ ZENTRUM M NCHEN DEUTSCHES FORSCHUNGSZENTRUM F R …, published 2023)",
  "binders": {"B1": {"name": "EIG-B 18B2 (antibody, V domains shown)", "VH": "QVQLKESGPGLVQPSQTLSLTCTVSGFSLTSYHISWVRQPPGKGLEWIAAISSGGDTYYNSLLKSRLSISRDTSKSQVFLKMNRLQTEDTAFYFCNGESYWGQGTLVTVSS", "VL": "DVVLTQSPATLSVTPGERISLSCRASENIDTYLHWFQQKPNESPRLLIKFASQSISGIPSRFSGSGSGRDFTLSINGVELEDLSIYYCQQGNILPYTFGAGTRLELKR", "notes": "Rat monoclonal antibody from a hybridoma; Only the variable regions are tied to the clone by name; also called EIG-B 1862"}, "B2": {"name": "EIG-B 10D9 (antibody, V domains shown)", "VH": "B1 VH", "VL": "B1 VL with R69T, R103K", "notes": "Rat monoclonal antibody from a hybridoma; Only the variable regions are tied to the clone by name; The constant regions are not tied to the clone"}, "B3": {"name": "EIG-D 26D7 (antibody, V domains shown)", "VH": "QVQLQQPGADLVRPGSSVKLSCKASGYSFTSYWMDWVKQRPGQGLEWIGNIYPSDGETHYNQKFKDKATLTVDKSSSTAYMQLSSLTSEDSAVYYCARLYSEYGSWGQGTTLTVSS", "VL": "DIVMTQSPSSLTVTTGEKVTMSCKSSQSLLNSGNQKNYLTWYQQRPGQPPKLLIYWASTRDSGVPDRFTGSGSGTDFTLTISSVQAADLAVYYCQNDYSYPLTFGAGTKLELKR", "notes": "Mouse monoclonal antibody from a hybridoma; Only the variable regions are tied to the clone by name; The constant regions are not tied to the clone"}},
  "molecular_target": "T1, human IGFR-like receptor (UPF0577 protein KIAA1324) (human, UniProt Q6UXG2 42-1013)",
  "T1 construct": "Endogenous protein in lysates of human MCF7 cells and human islet cells, seen as a band of ~130 kDa on Western blot; also called IGFR-I; IGF3R",
  "T1 sequence": "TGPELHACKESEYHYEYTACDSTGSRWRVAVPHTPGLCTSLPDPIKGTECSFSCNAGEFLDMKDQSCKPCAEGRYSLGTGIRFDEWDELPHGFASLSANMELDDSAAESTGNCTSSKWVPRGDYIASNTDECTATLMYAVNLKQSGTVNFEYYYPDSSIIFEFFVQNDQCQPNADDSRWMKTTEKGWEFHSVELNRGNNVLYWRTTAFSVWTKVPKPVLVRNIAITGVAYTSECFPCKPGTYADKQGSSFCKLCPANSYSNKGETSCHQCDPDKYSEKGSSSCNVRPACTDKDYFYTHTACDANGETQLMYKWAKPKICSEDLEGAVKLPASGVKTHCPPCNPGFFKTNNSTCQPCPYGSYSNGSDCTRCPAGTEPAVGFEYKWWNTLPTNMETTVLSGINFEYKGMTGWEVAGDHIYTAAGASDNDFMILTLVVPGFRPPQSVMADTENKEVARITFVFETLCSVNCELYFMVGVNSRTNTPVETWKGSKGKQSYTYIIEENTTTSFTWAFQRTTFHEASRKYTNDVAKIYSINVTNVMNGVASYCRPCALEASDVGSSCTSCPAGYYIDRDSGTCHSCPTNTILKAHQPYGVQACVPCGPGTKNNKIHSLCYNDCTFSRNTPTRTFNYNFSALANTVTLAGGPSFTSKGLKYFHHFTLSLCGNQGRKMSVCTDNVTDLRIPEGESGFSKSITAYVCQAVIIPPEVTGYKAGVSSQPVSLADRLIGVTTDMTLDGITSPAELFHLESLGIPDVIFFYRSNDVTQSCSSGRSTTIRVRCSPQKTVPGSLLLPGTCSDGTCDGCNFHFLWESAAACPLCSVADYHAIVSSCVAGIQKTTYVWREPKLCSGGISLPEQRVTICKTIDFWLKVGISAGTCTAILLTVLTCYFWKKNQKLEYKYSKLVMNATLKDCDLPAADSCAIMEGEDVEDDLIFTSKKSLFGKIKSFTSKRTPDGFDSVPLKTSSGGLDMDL",
  "experiment": "Western blot, MCF7 cell lysate (strong)",
  "description": "FIG. 29: Detection of IGFR-like receptor in mouse Min6 insulinoma cells and human MCF7 breast cancer cells using antibody against the extracellular domain of IGFR-like receptor. Western blotting experiments show specific recognition of a protein band of ˜130 kDa in Min6 (weak) and MCF7 (strong) cell lysates by an antibody against the extracellular domain SEQ ID NO: 4 (EIG-B 1862: VHC: SEQ ID NO:31, VLC: SEQ ID NO:32; and 10D9: VHC: SEQ ID NO:33, VLC: SEQ ID NO:34) and SEQ ID NO: 6 (EIG-D 26D7: VHC: SEQ ID NO:35, VLC: SEQ ID NO:36). The EIG-B clones are monoclonal antibodies generated against the peptide SEQ ID NO: 4 in rat, whereas the EIG-D clone is a monoclonal antibody generated against the SEQ ID NO: 6 in mouse.\nCells and tissues were lysed in RIPA buffer (50 mM Tris pH7.5, 150 mM NaCl, 1 mM EDTA, 1% IGEPAL, 0.1% SDS, 0.1% Na deoxycholate) containing a cocktail of proteinase inhibitor (1:100, Sigma, P8340) and phosphatases inhibitors (1:100, Sigma Aldrich, #2 P0044 and #3 P5726) and the cell or tissue lysates were cleared by centrifugation at 13000 r.p.m. for 10-30 min. The proteins (10-20 μg) were resolved in 6.5-15% SDS-PAGE according to the protein size to be detected and transferred to a PVDF membrane. Primary antibodies were added to the membrane in 5% milk and incubated at 4° C. overnight. Protein bands were visualized on Hyperfilms™ (GE healthcare, 28906837) or Blaufilme™ CEA-RP (Ernst Christiansen GmbH, EC84A) by chemiluminescent detection (ECL, Millipore, WBKLS0500).",
  "note": "Positions count from the first letter of the chain named.",
  "data": [
    {"binder": "B1", "values": [
      {"measurement": "binding result", "result": "binds"}
    ]},
    {"binder": "B2", "values": [
      {"measurement": "binding result", "result": "binds"}
    ]},
    {"binder": "B3", "values": [
      {"measurement": "binding result", "result": "binds"}
    ]}
  ]
}
